# Source: the NTF2 design screens of Basanta et al. (2020)
# Assay: protease stability score; higher = more stable; yeast display proteolysis, trypsin and chymotrypsin;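 also: log10 excess protease needed over predicted unfolded state with 0 meaning unfolded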
row,Sequence,protease stability score
1,DEKKVLEVIQKFAEAIKDGNAEQAKKLGKEGIQVHIGDETINGPDQVEKYVKKVKDLGNEVHYKEKEVKGDEVTVHTEVKMGDQTVHFEVHYRAKDDKVEQFHVKFDKDEARRFKTS,-0.27
2,DEKKVQEVAKDALKVDLQGDVEKMKKLGKPDVTFQLGDQEVHGPDDLKKYYDKVKRLGEEIHVKKVKVEGDKMQAHYELRVAGKQATVTVEVTVKDEKVEEARAEMTEKYKKALEEG,-0.154
3,DEKKVREFMERLFKAAENGNKDELRKVLMPNVKYQYVDKEKEGEEVAKEVAKAVKKVGAEIKKQEERVKGDTVEAVFQYKQGDTTVQTTVQIKYEGDKAKEVRVKLSDEVKKIVHRG,-0.079
4,DEKKWEQWARHFNQLMKQNDPDTLMQLFDPNARVKYGDKEVHGRTQIVKMWQTLVEQVDHIRIKNYSVSGDHVVIEIIVVVNGQEVEFVFRARVHNGTIKSASIDYRNEEHYKRAQG,0.264
5,DEKKYEELLREVQKYLYQGNYEEAQKVLAPNVVFEVGDYKMNGLEQVMKYYKKVKDRGAEIHVEEMEVTGHKARVVYKLHVGGRTIEVTAEVKVEDERVKKARVEVSEEYVKHVQHG,1.61
6,DEKLEKLVDEFIEAEHTNNPEELKKLIDPNARFRIGDKDVHGREEWNEDMKRINDELRIEVHIKHVDARGDHVDIEMEFTFNVNGRPVNQTAKQQIKFENGRMKRVVNNVSEDQVEQLHR,0.194
7,DEKLHHQIKEFIKAMKNGDPDKVQELADPNAEFRVGDKEIHGMDKYHKTVHDRHRKQRVNIQLHQLTVKGDKAEFVVTIDVQHNGQPSNDVYRAVIKLKNGKIQVVDRQKDQ,-0.138
8,DEKLIKLLKSLLKIQESGDPDKLRTMADPNVRFNIGDKVFHGMEEYATHVVELRKQAHIRIERLSNSDSNGVVNADFTRVNNHNGKPDSRRQEVTYVAHGDRIKEVNNQDHQ,-0.503
9,DEKLLDLLEKILQAEHENDPDQARELADPNVKYRYGDKSVNGRHEWVKDLERKTQKIKVEYKRIQVDAKGDKAHANVHMTVNHNGKPDKVLMEIVVRAHNGKVTELTVHEDK,0.041
10,DEKLLELAKKMRRAEETGDEDQLREMADKDAKFDIGDKRIHGMDTFVRQIKHELDKMRREITSVEFRVEGEEVVIHVHWVYSHNGQPRTKEYTMKFEIRGDKIKDLHIDNRG,0.007
11,DEKLLKRLEEFWKAVRKGNKQEIEEYADPNVRFQIGDKQVHGRENAKKYFHDERREIRIEYHDLKVRVRGDRIEIRYTVQYTHNGQPTERHYDIEIVLNGEKMKSMSVRTDR,-0.026
12,DEKMLQHMEDALRRNDEQRLVELVDEDVKIKIGDRDVHGSERAQKIAETRKERIDSQDFKSMDLSGNKVTVDRVVVVNGVKFRVVVIYELSNGRIKRIEVRVTDEENKRRLQKQLS,0.63
13,DEKNDRVLRRVMEAIHRGDPDKIHNQLDPNVKAEVGDKRFHGMEHIVEQVKRNWDNMRMRMKDVTVEDHNGQANAKVTYEVTENGQPKRAHVTVQAHAHDGRLTSVTYDTHE,-0.371
14,DEKNEDAARKLFNAWKQNDPDHARKLADPNVRFKYGDTQVHGRDQYARELRETNKQMRLEYKHVTIRVKNGNAEVNMNVRYNHNGQPRESTRRMTFKVENGKLVDVDIKTDK,0.133
15,DEKNLNQLKDLIKTNDEERIHELMDPNVRLVIGDQEVQGRENVFKVLKRWRERADHVRYNDLKLHDGRAFADVEINVNGENIRVHYVYVAHNGRIKEIKVTATDEDEQRKVEDNYK,1.37
16,DEKNMRVVETYLKALTRGDPDQAMRQVDEDVELTVGDKEVKGREEFSKLVKKWQDQARFSLQIHRVKVHENHVNINAEVTWDVNGKPQSFSHIIHARVHNGRIKHMSWEVPTEEWQNIEK,1.29
17,DEKNSKLAKDFFEAIESNNPEHAKELADENARYQVGDKQLHGMDEVLKHIKRENERAQVTVSSMTFRISNGRVEVHMDVQRDDNGDPDKKNLVVNFHFRNGKIKEVQDKNDS,0.614
18,DEKQADRAEKFMRALNEGNEDQATRLFDPNAHVVYGDTEVHGRERIRETIRNLQREMSVRYEVHRIEDRNGHVNLHADVTLQHNGRPARYVLTINVRADNGTIVSLNMRVPEEEKEKMKG,0.15

row,Sequence,protease stability score
1,DEKQAKELADEYIKAFEEGDPDKHQELVDKDAQVNYGDKTLHGREEFRKLVEELRRQADHISVHNVDYQGNKVVVHYVVDVNGHKVELSYTVQYHDGRMKQASVSYRSEDLKREQEQ,0.384
2,DEKQAKKVLKQMVKAVFNNDEELLKKLGKEDVEVQFMDTKYKGPDQLKKILEQYKRYGIEFHIKKTKVEGDKMQVHAQVHLADNTADVTAEYQADNGKVDHTRVQFSDTAKEVFKKG,-0.003
3,DEKQALDVAHEAARAVAEGDDQKLREHMDPNATMEYGDKQVHGRENIMRVAKEFRDRADNVEIKSVHLTGNKVNVHVLLTHNGHTQRVRIDAKAHNGRVKSIRLDDK,1.06
4,DEKQDKHYKKMMDEGDWKHFANNADPNARVDIGDKEYHGREQVNKALRRISEQADDFRVHDVQVENGRVRADVEFHVNGRSLKVDIRAVLHNGEVTHFHMSVTSEEVKQMLREIFD,0.289
5,DEKQDRDIQRVLHDNNPDHMKKLVDENAHAQVGNKTYHGREQVLTLIEHMVRTVDHMSIDKVEVKNGKADMDYHVNINGQSARVRVDVKFHNGRIKEIRIQATDKEVRDILDEAFD,1.23
6,DEKQKKDLLKQAVEMYLSGNSEEVRKLLKDDGEVEAGDQTYKGVEQVMKVVEQFKRYGVKLQMTDLKVDGDTVKVKAKLQNGGKTWEFEVTAQADGGKVDKITFKYSEEAKEDIEKG,-0.056
7,DEKQLHRVRHFLEVVRQGDEDNLREMADPNVRMVVGDKQFHGREEAVKFLVHKAKELRIDVKFKTINVRGDKVKAVAEMTENQNGKPHHAKLTWEIQMSNGKIQQLDFKLST,0.275
8,DEKQLKHVQEWVETGDPDQFARNADPNAEIQIGNTTWQGREEIQKLAHRLKKQVDTQELKDIQVHGDHVLVNRVMEWDGHTFEFSMHIKVQNGRIKSVDVKVRDPSQQKELEDHLS,-0.087
9,DEKQLKKAADRMVKAMETGDPQQINRMADENVRVEVGDKRISGEEDINRWLKELSDQADHARVKSIDASGNTVRVEMTIVVNGRETKLTIHVHFENGTAHHVRFQKS,0.223
10,DEKQLTLLRRIFEALLRNDEDKLKDLLDPNVKVRYGDKDLHGRENVAESIVRTNQEARFHVRRVTFRDHNGQAKVKVDFDQQHNGQPRSARLDVSMQRHNGRVKSISFKVDT,0.649
11,DEKQLVEVIREVIKALQQGHRDKVKKLGGPNVEVQAADYRNKGPEAILHMAEIVQRIGDEFQYRRTEQKGGTVTTTVEVHVGGHTVRYEVNAEAEGGKLKYWQADDDDKFIQHVKES,0.725
12,DEKQMEQVNKNMETGDWDKLQEQADEDVRLVVGEREFHGREQFSEFAKQAKRMVDDNTIHRIDLQGEKVKIKFVIKHNGRTVDVTVVMEVHNGRIKRYVLRARDEDAEDIIRKMLS,0.902
13,DEKQMRSVTKFIRVLQHGDNNQLRRLADPNAKARVGEKDVTGMDDILTRWVTFVEQARVKIDIREMDVSNGKVVIDAHIEIDINGRPLRDKITIIAEYRNGRLKFLELHVDQDFMRKVKR,0.223
14,DEKQNAEKVMTDVERNLREGDDNKIKEMADKDAKADVGEKKVTGREDIAKMLATLNKSVDEVTLDLKHVTTQGDFLNVKADIKWRHNGTTRQNKVEMWVNDFNGNVVIKHLRIG,1.08
15,DEKQNDVVDDFMRAVREGDPTQLKSLVDPNARIQIGDRTYTGMEEYVTHVHKDLRKMRIEIRIKDIKAHNGHARIEFEVINTDNGRPDKKRMDVEFRIHNGKLKEAQYKSDR,0.766
16,DEKQNNHFKDLMETNDWTQIAKQADENAKAKYGDKTVHGRENITHNNRRIKNRVDEMRIRNLTLEPNRIVQNFVVRVNGQDAQAVMTLEFENGRVKSVKLQARDTRVEEVLRKMMQ,0.465
17,DEKQNQEMQDMLHTGDFKRIADLVDENAEWNYGDKTYHGRKTIKKFLDAFQHRADHVEVKRFDVHNGHVSANMQMNVDGRRIDFRVVVHVENGRVKEYRMDFTDPRQQREVERQVE,0.745
18,DEKQQARDLVKELRDALKHGNEKQVVKMADENAKLQVGDKKVHGRKDIDKWAKDLRDRVDHVRLEVRSIDVHNGRMKFTATFTETHNGRKKERTMTMRARIQGDKFKIQQINLS,0.247
